The source of these data is paper PMC3655264 (2010).

Where no end group is shown, it is not given here. [ ]: non-standard residue; d: D form. The star is where a group is joined. MPB‑DPPE = 1,2-dipalmitoyl-sn-glycero-3-phosphoethanolamine-N-[4-(p-maleimidophenyl)butyramide], CCCCCCCCCCCCCCCC(=O)OC[C@H](COP(=O)(O)OCCNC(=O)CCCc1ccc(N2C(=O)CC(*)C2=O)cc1)OC(=O)CCCCCCCCCCCCCCC; pS = N[C@@H](COP(=O)(O)O)C(=O)O

Test [1] addresses T1, μ2 KRR>E Core (Rattus norvegicus (alpha2, mu2), Homo …). As to the kind of experiment: SPR; liposomes with 10% PtdIns4,5P2 + 1% CD4P.
The target in test [2] is T2, AP2 core (recombinant; α trunk, β2 trunk, myc-tagged μ2, σ2) (UniProt P63010 1-592; P84092 1-236; P84092 237-435; P62743 1-142). The experiment in a line: SPR; liposomes with 10% PtdIns4,5P2 + 1% CD4P. (In general: SPR reads the build-up and loss of mass on a sensor chip optically.)
T2 sequence (chain, as listed by the source, chain 1 of 4): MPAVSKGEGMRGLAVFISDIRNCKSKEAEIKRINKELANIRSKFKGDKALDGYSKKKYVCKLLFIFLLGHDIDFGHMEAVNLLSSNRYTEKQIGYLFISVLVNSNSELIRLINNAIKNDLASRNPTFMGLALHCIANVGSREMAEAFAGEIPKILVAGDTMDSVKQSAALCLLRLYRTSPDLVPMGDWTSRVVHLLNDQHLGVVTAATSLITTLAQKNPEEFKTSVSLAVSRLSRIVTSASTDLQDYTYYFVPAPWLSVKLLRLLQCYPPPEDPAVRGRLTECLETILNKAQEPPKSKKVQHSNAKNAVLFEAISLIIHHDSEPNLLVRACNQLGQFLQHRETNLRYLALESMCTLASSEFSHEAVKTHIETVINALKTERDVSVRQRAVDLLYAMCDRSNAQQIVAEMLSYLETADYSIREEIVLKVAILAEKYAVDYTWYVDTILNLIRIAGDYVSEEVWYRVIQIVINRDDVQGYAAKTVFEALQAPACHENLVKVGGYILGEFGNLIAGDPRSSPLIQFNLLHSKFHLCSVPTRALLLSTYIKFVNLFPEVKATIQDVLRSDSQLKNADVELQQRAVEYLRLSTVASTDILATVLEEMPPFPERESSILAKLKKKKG
T2 sequence (P63010 1-592, chain 2 of 4): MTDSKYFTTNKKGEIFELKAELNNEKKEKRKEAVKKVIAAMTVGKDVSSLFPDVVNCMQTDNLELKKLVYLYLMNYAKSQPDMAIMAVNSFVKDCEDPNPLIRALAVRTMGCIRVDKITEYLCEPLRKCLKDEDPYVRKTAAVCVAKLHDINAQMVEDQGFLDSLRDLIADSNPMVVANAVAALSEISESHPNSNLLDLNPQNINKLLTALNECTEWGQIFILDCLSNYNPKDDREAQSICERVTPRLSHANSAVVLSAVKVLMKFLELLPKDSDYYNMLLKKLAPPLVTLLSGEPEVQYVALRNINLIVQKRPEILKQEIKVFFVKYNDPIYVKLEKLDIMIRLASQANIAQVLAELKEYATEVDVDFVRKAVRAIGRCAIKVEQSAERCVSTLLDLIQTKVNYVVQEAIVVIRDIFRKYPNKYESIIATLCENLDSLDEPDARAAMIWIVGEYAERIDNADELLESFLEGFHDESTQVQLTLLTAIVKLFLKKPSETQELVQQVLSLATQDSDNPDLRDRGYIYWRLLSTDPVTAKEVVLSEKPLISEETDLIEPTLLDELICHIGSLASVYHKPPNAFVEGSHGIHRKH
T2 sequence (P84092 other isoform, or with tags, fused parts or gaps, chain 3 of 4): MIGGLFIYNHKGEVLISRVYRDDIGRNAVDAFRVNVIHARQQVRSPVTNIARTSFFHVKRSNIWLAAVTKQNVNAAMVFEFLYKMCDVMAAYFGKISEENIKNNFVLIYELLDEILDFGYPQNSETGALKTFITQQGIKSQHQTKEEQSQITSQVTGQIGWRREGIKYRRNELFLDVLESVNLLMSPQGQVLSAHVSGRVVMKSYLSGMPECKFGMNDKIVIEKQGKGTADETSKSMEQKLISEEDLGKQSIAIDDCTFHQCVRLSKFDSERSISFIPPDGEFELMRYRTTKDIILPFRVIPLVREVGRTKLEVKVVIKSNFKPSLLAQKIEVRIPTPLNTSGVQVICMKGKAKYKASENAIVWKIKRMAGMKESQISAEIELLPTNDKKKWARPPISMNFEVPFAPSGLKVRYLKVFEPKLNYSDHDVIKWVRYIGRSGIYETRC
T2 sequence (P62743 whole entry, chain 4 of 4): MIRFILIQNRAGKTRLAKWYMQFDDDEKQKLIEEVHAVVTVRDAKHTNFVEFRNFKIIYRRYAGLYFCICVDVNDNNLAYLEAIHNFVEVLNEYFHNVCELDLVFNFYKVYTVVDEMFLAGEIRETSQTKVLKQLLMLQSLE
The target in test [3] is T3, μ2^PIP-Core (AP2 core with the μ2 mutations 5K>E and KRR>E combined) (UniProt P63010 1-592; P84092 1-236; P84092 237-435; P62743 1-142). The experiment in a line: SPR; liposomes with 10% PtdIns4,5P2 + 1% CD4P.
Test [4] deals with μ2 5K>E Core. The experiment in a line: SPR; liposomes with 10% PtdIns4,5P2 + 1% CD4P.
Test [5] concerns the target T1, μ2 KRR>E Core. The experiment in a line: SPR; liposomes with 10% PtdIns4,5P2 + 1% TGN38.
Test [6] deals with β2^PIP-Core (AP2 core with β2 Lys5, Lys12, Lys26, Lys27, Lys29, Lys36 mutated to glutamate) (UniProt P63010 1-592; P84092 1-236; P84092 237-435; P62743 1-142, Lys5 to glutamate | Lys12 to glutamate | Lys26 to glutamate | Lys27 to …). The experiment in a line: SPR; liposomes with 10% PtdIns4,5P2 + 1% TGN38.
β2^PIP-Core (AP2 core with β2 Lys5, Lys12, Lys26, Lys27, Lys29, Lys36 mutated to glutamate), sequence (P18484 other isoform, or with tags, fused parts or gaps with the stated changes, chain 1 of 4): as the sequence (chain, as listed by the source, chain 1 of 4) above
β2^PIP-Core (AP2 core with β2 Lys5, Lys12, Lys26, Lys27, Lys29, Lys36 mutated to glutamate), sequence (P63010 other isoform, or with tags, fused parts or gaps with the stated changes, chain 2 of 4): as the sequence (P63010 1-592, chain 2 of 4) above, with K5E, K12E, K26E, K27E, K29E, K36E counted along it
β2^PIP-Core (AP2 core with β2 Lys5, Lys12, Lys26, Lys27, Lys29, Lys36 mutated to glutamate), sequence (Q96CW1 other isoform, or with tags, fused parts or gaps with the stated changes, chain 3 of 4, further chain): as the sequence (P84092 other isoform, or with tags, fused parts or gaps, chain 3 of 4) above
β2^PIP-Core (AP2 core with β2 Lys5, Lys12, Lys26, Lys27, Lys29, Lys36 mutated to glutamate), sequence (B2R4Z4 whole entry, stated change not applied, chain 4 of 4, further chain): as the sequence (P62743 whole entry, chain 4 of 4) above
Test [7] deals with T2, AP2 core (recombinant; α trunk, β2 …). The experiment in a line: SPR; liposomes with 10% PtdIns4,5P2 + 1% TGN38.
The target of test [8] is α^PIP-Core (AP2 core with mutations in the PtdIns4,5P2-binding site on α) (UniProt P63010 1-592; P84092 1-236; P84092 237-435; P62743 1-142). As to the kind of experiment: SPR; liposomes with 10% PtdIns4,5P2 + 1% TGN38.
Test [9] addresses T3, μ2^PIP-Core (AP2 core with the μ2 …). The experiment in a line: SPR; liposomes with 10% PtdIns4,5P2 + 1% TGN38.
The target of test [10] is μ2 5K>E Core. As to the kind of experiment: SPR; liposomes with 10% PtdIns4,5P2 + 1% TGN38.

T1 sequence (chain, as listed by the source, chain 1 of 4): as the sequence (chain, as listed by the source, chain 1 of 4) above
T1 sequence (chain, as listed by the source, chain 2 of 4): as the sequence (P63010 1-592, chain 2 of 4) above
T1 sequence (chain, as listed by the source, chain 3 of 4): as the sequence (P84092 other isoform, or with tags, fused parts or gaps, chain 3 of 4) above, with K167E, R169E, R170E counted along it
T1 sequence (chain, as listed by the source, chain 4 of 4): as the sequence (P62743 whole entry, chain 4 of 4) above

Consider C(1,2‑dipalmitoyl‑sn‑glycero‑3‑phosphoethanolamine‑N‑(4-(p-maleimidophenyl)butyramide))HRRRQAERM[pS]QIKRLLSEK, for which the dissociation constant (Kd) – broadly, the concentration at which binding is half-saturated – with μ2 KRR>E Core [1] was determined as 850 nM; in test [2], 820 nM; in test [3], 2500 nM; with μ2 5K>E Core [4], 950 nM.
Take C(MPB‑DPPE)KVTRRPKASDYQRL [lipid-linked TGN38 sorting motif peptide (CKVTRRPKASDYQRL) displayed in liposomes]: the Kd with μ2 KRR>E Core [5] was 330 nM; in test [6], 20000 nM; in [7], 320 nM; in [8], > 30000 nM; in [9] it was 6200 nM; in the test with μ2 5K>E Core [10] it was 520 nM.
